Test results as given in US10428140B2, “Anti-EphA4 antibody” (EISAI R&D MANAGEMENT CO., LTD., priority 2015, dated 2019).
Changes are numbered by the printed parent chain.

T1: human EphA6 (Homo sapiens, UniProt Q9UF33)
T1 construct: a protein of the extracellular region of each human Eph receptor fused with the SEAP protein and the His tag; made in house; host or cells: Expi293F cells (culture supernatant)
T1 sequence (Q9UF33 23-550 limits assumed): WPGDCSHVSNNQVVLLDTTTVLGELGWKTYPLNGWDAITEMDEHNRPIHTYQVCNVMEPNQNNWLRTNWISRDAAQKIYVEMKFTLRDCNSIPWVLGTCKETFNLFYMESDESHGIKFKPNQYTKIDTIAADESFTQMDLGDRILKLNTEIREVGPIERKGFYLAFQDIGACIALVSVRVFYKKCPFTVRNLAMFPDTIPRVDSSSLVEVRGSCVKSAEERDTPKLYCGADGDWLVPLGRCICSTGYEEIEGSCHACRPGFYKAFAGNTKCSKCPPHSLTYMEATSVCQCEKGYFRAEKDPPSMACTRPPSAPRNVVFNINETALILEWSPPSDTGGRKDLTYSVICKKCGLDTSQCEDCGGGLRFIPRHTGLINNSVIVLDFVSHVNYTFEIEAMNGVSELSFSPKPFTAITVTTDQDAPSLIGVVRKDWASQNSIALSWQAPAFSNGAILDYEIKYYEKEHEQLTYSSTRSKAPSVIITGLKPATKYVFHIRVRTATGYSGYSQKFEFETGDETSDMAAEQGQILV

T2: human EphA7 (Homo sapiens, UniProt Q15375)
T2 construct: a protein of the extracellular region of each human Eph receptor fused with the SEAP protein and the His tag; made in house; host or cells: Expi293F cells (culture supernatant)
T2 sequence (Q15375 28-555 limits assumed): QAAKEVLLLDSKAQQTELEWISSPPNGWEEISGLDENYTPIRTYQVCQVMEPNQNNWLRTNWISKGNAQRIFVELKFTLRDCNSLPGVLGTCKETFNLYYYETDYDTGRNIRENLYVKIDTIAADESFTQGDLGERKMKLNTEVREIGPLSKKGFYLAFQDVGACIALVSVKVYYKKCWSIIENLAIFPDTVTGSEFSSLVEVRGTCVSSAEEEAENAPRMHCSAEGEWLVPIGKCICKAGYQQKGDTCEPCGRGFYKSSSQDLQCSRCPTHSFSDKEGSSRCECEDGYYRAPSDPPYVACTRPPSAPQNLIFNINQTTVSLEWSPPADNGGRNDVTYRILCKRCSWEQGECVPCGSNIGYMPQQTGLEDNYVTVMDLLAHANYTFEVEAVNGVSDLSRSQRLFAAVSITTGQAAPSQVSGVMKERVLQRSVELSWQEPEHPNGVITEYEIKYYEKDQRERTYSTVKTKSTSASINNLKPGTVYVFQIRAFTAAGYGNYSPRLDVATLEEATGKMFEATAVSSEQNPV

T3: human EphA3 (Homo sapiens, UniProt P29320)
T3 construct: a protein of the extracellular region of each human Eph receptor fused with the SEAP protein and the His tag; made in house; host or cells: Expi293F cells (culture supernatant)
T3 sequence (P29320 21-541 limits assumed): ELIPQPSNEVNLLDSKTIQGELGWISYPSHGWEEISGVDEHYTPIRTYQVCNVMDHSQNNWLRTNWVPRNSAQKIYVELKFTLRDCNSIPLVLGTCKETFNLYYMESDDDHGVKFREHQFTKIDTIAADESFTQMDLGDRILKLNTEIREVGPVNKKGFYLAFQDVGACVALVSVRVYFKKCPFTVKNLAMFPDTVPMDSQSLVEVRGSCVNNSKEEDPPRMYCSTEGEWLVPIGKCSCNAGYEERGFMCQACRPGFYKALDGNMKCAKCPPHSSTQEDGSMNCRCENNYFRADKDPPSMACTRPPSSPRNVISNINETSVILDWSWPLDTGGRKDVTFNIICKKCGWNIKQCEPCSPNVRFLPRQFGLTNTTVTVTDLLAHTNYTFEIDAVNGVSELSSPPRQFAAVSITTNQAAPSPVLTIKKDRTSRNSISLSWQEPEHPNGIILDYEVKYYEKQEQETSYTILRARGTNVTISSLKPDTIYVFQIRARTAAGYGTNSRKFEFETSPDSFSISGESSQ

B1: 78 (antibody, V domains shown)
VH: QVQLVQSGSELKKPGASVKVSCKASGYTFTDYSMHWVRQAPGQGLKWMGWINTETGEPTYADDFKGRFVFSLDTSVSTAYLQISSLKAEDTAVYYCARIPLYYYGSRYWYFDVWGQGTTVTVSS
VL: DIQMTQSPSSLSASVGDRVTITCRASENIYRNLAWYQQKPGKAPKLLVYAATNLADGVPSRFSGSGSGTDYTLTISSLQPEDFATYYCQHFWGTPWTFGQGTKVEIK
modifications: synthetic humanized antibody heavy chain variable region sequence; synthetic humanized antibody light chain variable region sequence
B2: 136 (antibody, V domains shown)
VH: B1 VH
VL: EIVMTQSPATLSVSPGERATLSCRASENIYRNLAWYQQKPGQSPRLLIYAATNLADGIPARFSGSGSGTEYTLTISSLQSEDFAVYYCQHFWGTPWTFGQGTKVEIK
modifications: synthetic humanized antibody heavy chain variable region sequence; synthetic humanized antibody light chain variable region sequence
B3: 156 (antibody, V domains shown)
VH: B1 VH with V2I, D62Q, D63G, K65T
VL: B1 VL with K45Q, V48L
modifications: synthetic humanized antibody heavy chain variable region sequence; synthetic humanized antibody light chain variable region sequence

How the values were obtained:
Assay in all cases: Selectivity ELISA of humanized antibodies for human Eph receptor
Assay type in all cases: binding
Details in all cases: coated protein 1 nM
human EphA6 = molecular target: T1, human EphA6
Outline: (§1)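 Read-out is A450 after TMB development stopped with 1N H2SO4. Plates bore anti-His-captured human Eph extracellular region-SEAP-His proteins at 1 nM final, made in Expi293F cells. Humanized antibody binding ran 1 h at room temperature before HRP-labeled anti-IgG detection.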

human EphA7 = molecular target: T2, human EphA7
Outline: as §1

human EphA3 = molecular target: T3, human EphA3
Outline: as §1

Molecule | hEphA6-SEAP-: absorbance at 450 nm, percentage with respect to hEphA4-SEAP-His as 100% (human EphA6) [%] | hEphA7-SEAP-: absorbance at 450 nm, percentage with respect to hEphA4-SEAP-His as 100% (human EphA7) [%] | hEphA3-SEAP-: absorbance at 450 nm, percentage with respect to hEphA4-SEAP-His as 100% (human EphA3) [%]
B1 | 10.0 | 5.0 | 5.1
B2 | 7.2 | 5.4 | 5.2
B3 | 8.9 | 5.6 | 5.7
